In patent US20180164286A1 (MEDICAL DIAGNOSTIC LABORATORIES, published 2018):
Where a chain is given by its changes, count along the chain named. In names and notes the source's numbering stands.

B1: 4E-BP1 with C-terminal LB at residue 75 (other, UniProt Q13541 1-75, looked up, not shown: large carriers)
chain: MSGGSSCSQTPSRAIPATRRVVLGDGVQLPPGDYSTTPGGTLFSTTPGGTRIIYDRKFLMECRNSPVTKTPPRDL
B2: LB-4E-BP1 with T37E, T46E, S65E, and T70E (other)
chain: MVFTLEDFVGDWEQTAAYNLDQVLEQGGVSSLLQNLAVSVTPIQRIVRSGENALKIDIHVIIPYEGLSADQMAQIEEVFKVVYPVDDHHFKVILPYGTLVIDGVTPNMLNYFGRPYEGIAVFDGKKITVTGTLWNGNKIIDERLITPDGSMLFRVTINSGSSGGGGSGGGGSSGMSGGSSCSQTPSRAIPATRRVVLGDGVQLPPGDYSTEPGGTLFSTEPGGTRIIYDRKFLMECRNEPVTKEPPRDLPTIPGVTSPSSDEPPMEASQSHLRNSPEDKRAGGEESQFEMDI
notes: All four mTOR phosphorylation sites changed to glutamate on the LB-4E-BP1 plasmid; The residue numbers count on 4E-BP1 itself; also called T37/46/70E/S65E (all 4 sites mutated); all E
B3: Large BiT (LB)-4E-BP2, full-length (other)
chain: MVFTLEDFVGDWEQTAAYNLDQVLEQGGVSSLLQNLAVSVTPIQRIVRSGENALKIDIHVIIPYEGLSADQMAQIEEVFKVVYPVDDHHFKVILPYGTLVIDGVTPNMLNYFGRPYEGIAVFDGKKITVTGTLWNGNKIIDERLITPDGSMLFRVTINSGSSGGGGSGGGGSSGMSSSAGSGHQPSQSRAIPTRTVAISDAAQLPHDYCTTPGGTLFSTTPGGTRIIYDRKFLLDRRNSPMAQTPPCHLPNIPGVTSPGTLIEDSKVEVNNLNNLNNHDRKHAVGDDAQFEMDI
B4: R62P LB-4E-BP2 (other)
chain: B3 chain with R236P
notes: Patient (COSMIC) mutation made in LB-4E-BP2 as a linear expression cassette; The residue number counts on 4E-BP2 itself; also called 4EBP2-R62P
B5: D55Y LB-4E-BP2 (other)
chain: B3 chain with D229Y
notes: Patient (COSMIC) mutation made in LB-4E-BP2 as a linear expression cassette; The residue number counts on 4E-BP2 itself; also called 4EBP2-D55Y

Tests used:
[1] = molecular target: Small BiT (SB)-eIF4E, full-length; assay: cell-based or functional assay
[2] = molecular target: T1, Small BiT (SB)-eIF4E, full-length; assay: split-luciferase (NanoBiT) luminescence in HEK293 cells
T1 construct: N-terminal Small BiT fusion of full-length eIF4E (cDNA Origene RC207333), expressed intracellularly in HEK293, MCF-7 or HEK293-derived clones; also called Full-length SB-eIF4E; SB-linked eIF4E

[3] = molecular target: T1, Small BiT (SB)-eIF4E, full-length; assay: split-luciferase luminescence in 3A1 cell line stably expressing SB-eIF4E

| Binder | fold-change of split-luciferase luminescence, rapamycin (50 nM, 1 h) over vehicle; HEK293 cells [1] [fold] | binding result [3] | further results |
| --- | --- | --- | --- |
| B1 | 0.83 | – | – |
| B2 | – | – | binding result [2]: no binding |
| B3 | 1.84 | – | – |
| B4 | – | no binding | – |
| B5 | – | no binding | – |
